# Measured values reported in patent US20240029824A1 (University of Washington, published 2024).
# Substitutions are numbered along the chain they refer to.
# T1: DHT03 chain C (SEQ ID NO: 59)
# T1 chain: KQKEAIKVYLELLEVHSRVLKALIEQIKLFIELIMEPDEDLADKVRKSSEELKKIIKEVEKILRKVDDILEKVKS
# T2: DHT03_2arm_A21/B21/C long chain B
# T2 chain: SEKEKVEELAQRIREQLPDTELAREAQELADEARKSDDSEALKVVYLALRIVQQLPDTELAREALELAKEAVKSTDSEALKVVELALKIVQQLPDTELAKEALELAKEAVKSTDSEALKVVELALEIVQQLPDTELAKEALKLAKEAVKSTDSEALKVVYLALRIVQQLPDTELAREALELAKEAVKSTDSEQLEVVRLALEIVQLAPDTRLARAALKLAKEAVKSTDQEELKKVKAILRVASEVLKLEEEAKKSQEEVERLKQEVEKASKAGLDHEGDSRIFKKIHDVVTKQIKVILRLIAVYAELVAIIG
# T3: DHT03_2arm_A21/Bt18/C chain B
# T3 chain: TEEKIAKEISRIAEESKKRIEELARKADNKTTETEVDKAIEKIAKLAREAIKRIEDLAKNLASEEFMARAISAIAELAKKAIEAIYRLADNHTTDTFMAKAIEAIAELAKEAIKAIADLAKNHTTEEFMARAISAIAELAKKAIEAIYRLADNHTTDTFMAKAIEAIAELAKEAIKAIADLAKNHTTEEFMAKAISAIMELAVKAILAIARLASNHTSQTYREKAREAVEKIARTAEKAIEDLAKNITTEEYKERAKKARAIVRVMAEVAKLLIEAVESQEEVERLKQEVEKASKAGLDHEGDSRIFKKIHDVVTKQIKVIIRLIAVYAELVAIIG
# T4: DHT03_2arm_A21/B62/C chain B
# T4 chain: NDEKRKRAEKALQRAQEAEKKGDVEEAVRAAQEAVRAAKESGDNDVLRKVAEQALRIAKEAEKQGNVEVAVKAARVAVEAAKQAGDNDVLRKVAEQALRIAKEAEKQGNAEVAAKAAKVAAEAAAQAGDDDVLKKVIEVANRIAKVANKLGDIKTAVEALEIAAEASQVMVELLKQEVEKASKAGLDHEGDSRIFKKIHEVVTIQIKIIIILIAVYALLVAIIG
# T5: DHT03 chain C (SEQ ID NO: 65)
# T5 chain: T1 chain with K28L, M35V, E36R, E71Y
# T6: DHT03_2arm_A21/B14/C chain B
# T6 chain: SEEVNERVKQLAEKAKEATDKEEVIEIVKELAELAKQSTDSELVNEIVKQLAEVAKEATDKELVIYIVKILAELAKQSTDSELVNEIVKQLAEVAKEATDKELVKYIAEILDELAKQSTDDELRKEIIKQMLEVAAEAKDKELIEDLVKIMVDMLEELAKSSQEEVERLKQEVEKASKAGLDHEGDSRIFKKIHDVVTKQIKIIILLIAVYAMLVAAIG
# T7: DHT03_3arm_A21/B21/C53 chain C
# T7 chain: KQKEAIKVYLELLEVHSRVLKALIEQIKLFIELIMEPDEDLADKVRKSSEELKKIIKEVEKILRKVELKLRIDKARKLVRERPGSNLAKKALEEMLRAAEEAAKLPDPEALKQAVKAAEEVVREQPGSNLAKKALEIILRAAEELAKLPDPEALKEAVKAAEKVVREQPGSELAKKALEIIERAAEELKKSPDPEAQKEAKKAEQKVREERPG
# T8: DHT03_3arm_A21/B21/C82 chain C
# T8 construct: also called chain C DHR82 fusion; chain C of C3-DHT03-01-DHR82 and C4-DHT03-01-DHR82
# T8 chain: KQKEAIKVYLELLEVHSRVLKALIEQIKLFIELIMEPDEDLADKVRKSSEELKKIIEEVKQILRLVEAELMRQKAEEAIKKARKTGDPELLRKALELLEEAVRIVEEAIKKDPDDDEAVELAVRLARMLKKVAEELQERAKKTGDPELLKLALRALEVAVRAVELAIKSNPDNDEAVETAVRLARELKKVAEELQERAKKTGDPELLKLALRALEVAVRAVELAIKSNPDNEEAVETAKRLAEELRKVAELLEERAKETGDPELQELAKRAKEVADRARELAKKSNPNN
# T9: DHT03_3arm_A21/B21/C62 chain C
# T9 chain: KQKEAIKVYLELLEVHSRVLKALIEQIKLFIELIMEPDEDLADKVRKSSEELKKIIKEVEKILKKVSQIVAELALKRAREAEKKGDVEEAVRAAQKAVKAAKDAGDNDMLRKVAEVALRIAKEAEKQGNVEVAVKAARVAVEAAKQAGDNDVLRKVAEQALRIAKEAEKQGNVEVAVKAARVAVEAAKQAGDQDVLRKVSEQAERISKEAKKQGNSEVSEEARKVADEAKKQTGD
# T10: DHT03_3arm chain B (B21, SEQ ID NO: 73)
# T10 construct: separately expressed with an N- or C-terminal 6xHis-tag
# T10 chain: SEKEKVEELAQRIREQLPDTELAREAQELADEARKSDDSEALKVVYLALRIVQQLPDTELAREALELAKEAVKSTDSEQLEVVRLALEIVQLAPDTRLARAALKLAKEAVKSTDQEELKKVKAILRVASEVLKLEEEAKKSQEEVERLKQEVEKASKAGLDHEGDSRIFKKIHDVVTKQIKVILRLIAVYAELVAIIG
# T11: DHT03_3arm_A21/B21/C59 chain C
# T11 chain: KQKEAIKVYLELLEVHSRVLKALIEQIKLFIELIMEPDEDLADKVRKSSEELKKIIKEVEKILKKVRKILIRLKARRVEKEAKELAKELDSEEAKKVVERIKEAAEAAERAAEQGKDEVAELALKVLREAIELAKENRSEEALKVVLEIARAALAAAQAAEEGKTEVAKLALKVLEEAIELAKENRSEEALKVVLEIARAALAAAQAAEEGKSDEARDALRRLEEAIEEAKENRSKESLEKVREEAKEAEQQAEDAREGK
# B1: DHT03_2arm_A21/B21/C long chain A (designed binder)
# chain: SEKEKVEELAQRIREQLPDTELAREAQELADEARKSDDSEALKVVYLALRIVQQLPDTELAREALELAKEAVKSTDSEALKVVELALKIVQQLPDTELAKEALKLAKEAVKSTDSEALKVVELALEIVQQLPDTELAKEALELAEEAVKSTDSEALKVVKLALEIVQQLPDTELAREALELAKEAVKSTDSEALKVVYLALRIVQQLPDTELARLALELAKKAVEMTAQEVLEIARAALKAAQAFPNTELAELMLRLAEVAARVMKELERNDEEIKKSDELDDESLLEDIVELLKEIIKLWKILVEVSDVMLKLIS
# B2: DHT03 A21 fusion chain A (SEQ ID NO: 63) (designed binder)
# chain: SEKEKVEELAQRIREQLPDTELAREAQELADEARKSDDSEALKVVYLALRIVQQLPDTELAREALELAKEAVKSTDSEALKVVYLALRIVQQLPDTELARLALELAKKAVEMTAQEVLEIAKAALKAAQAFPNTELAELMLRLAEVAARVMKELERNDEEIKKSDELDDESLLEDIVELLKEIIKLWKILVEVSDVMLKLIS
# B3: DHT03 A21 fusion chain A (SEQ ID NO: 66) (designed binder)
# chain: B2 chain with E119A
# B4: DHT03_3arm chain A (A21, SEQ ID NO: 72) (designed binder)
# chain: B2 chain with E119A, E170A, E174A, E178R, K181A
# notes: separately expressed with an N- or C-terminal 6xHis-tag
# Tests used:
# [1] = biological target: T1, DHT03 chain C (SEQ ID NO: 59); experiment: X-ray crystal structure, 3.35 A
# Method: Purified DHT03_2arm_A21/B21/C (long) protein at a concentration of 41 mg/mL was used to conduct sitting drop, vapor-diffusion crystallization trials using the JCSG Core I-IV screens (NeXtal Biotechnologies). Crystals of DHT03_2arm_A21/B21/C long grew from drops consisting of 100 nL protein plus 100 nL of a reservoir solution consisting of 2M (NH4)2SO4, 0.1M sodium acetate pH4.6 at 18° C., and were cryoprotected by supplementing the reservoir solution with 2.2M sodium malonate pH5. Native diffraction data was collected at APS beamline APS-23-ID-B, indexed to P1 and reduced using XDS⁴⁸. The structure was phased by molecular replacement using Phaser™. The chain A of a set of ˜49 lowest energy predicted models from Rosetta™ were used as search models. Several of these models gave clear solutions. Chain B and Chain C were fitted manually in Coot™ and rigid body refinement by Phenix™. The following model building and refinement were done by Coot™ and Phenix™.
# [2] = biological target: T2, DHT03_2arm_A21/B21/C long chain B; experiment: co-expression, SEC, native MS, SAXS; chains of one ABC heterotrimer
# [3] = biological target: T3, DHT03_2arm_A21/Bt18/C chain B; experiment: as above
# [4] = biological target: T4, DHT03_2arm_A21/B62/C chain B; experiment: as above
# [5] = biological target: T5, DHT03 chain C (SEQ ID NO: 65); experiment: as above
# [6] = biological target: T6, DHT03_2arm_A21/B14/C chain B; experiment: as above
# [7] = biological target: T7, DHT03_3arm_A21/B21/C53 chain C; experiment: individually purified chains mixed 1:1:1, heat annealed, SEC
# Source text: (§1) To test this idea, an equimolar amount of individually purified A, B, and C of DHT03_2arm_A21/B21/C were mixed together and run through an annealing protocol (see Methods) to allow these interfaces to reassemble in the presence of all components. A monodisperse SEC peak was observed belonging to the ABC heterotrimer state as confirmed by overlap with its SEC co-expressed tricistronic version (FIG. 3d). To explore the use of this approach for building, four different repeat protein fusions to chain C were annealed in the same manner and all four 3-arm heterotrimers were successfully reconstituted. […] The successful reconstitution of these ABC assemblies, following the independent expression and purification of each chain and explicit mixing at a 1:1:1 ratio, enables their use in conjunction with other de novo proteins to mediate the specific assembly of multi-component assemblies. Independent expression also has considerable advantages over tricistronic expression from a gene synthesis perspective as DNA becomes much more difficult and expensive to synthesize with increasing construct size.
# (§2) To test whether the DHT03 components could properly assemble in the presence of other helical hairpin containing chains, as would be the case for more complex assemblies, we chose DHD131, a designed helical hairpin unit heterodimer containing buried hydrogen bond networks¹². […] We evaluated simultaneous reconstitution of DHD131 and DHT03_3arm_A21/B21/C82, since the size difference between the two constructs (if correctly assembled) should be detected by SEC. We separately expressed and individually purified the two chains of the heterodimer and the three chains of the heterotrimer, mixed them at a 1:1:1:1:1 ratio, and carried out annealing and SEC as described above.
# [8] = biological target: T8, DHT03_3arm_A21/B21/C82 chain C; experiment: as above
# Source text: as §1, §2
# [9] = biological target: T9, DHT03_3arm_A21/B21/C62 chain C; experiment: as above
# Source text: as §1, §2
# [10] = biological target: T10, DHT03_3arm chain B (B21, SEQ ID NO: 73); experiment: as above
# Source text: as §1, §2
# [11] = biological target: T11, DHT03_3arm_A21/B21/C59 chain C; experiment: as above
# Source text: as §1, §2
binder,measurement,setting,value
B1,binding result,[1],binds
same,binding result,[2],binds
B2,binding result,[3],binds
same,binding result,[4],binds
same,binding result,[5],binds
B3,binding result,[6],binds
B4,binding result,[7],binds
same,binding result,[8],binds
same,binding result,[9],binds
same,binding result,[10],binds
same,binding result,[11],binds
